Laboratory results: US20250066509A1

Assays:
Assay in all cases: cell-based or functional assay
[1] = target: human FGFR4/βKlotho receptor (human) (UniProt P22455)
[2] = target: cynomolgus monkey FGFR1c/βKlotho receptor (cynomolgus monkey)
[3] = target: human FGFR2c/βKlotho receptor (human) (UniProt P21802)
[4] = target: human FGFR3c/βKlotho receptor (human) (UniProt P22607)
[5] = target: human FGFR1c/βKlotho receptor (human) (UniProt P11362)
Sequence of human FGFR1c/βKlotho receptor (human) (P11362 22-822, chain 1 of 2): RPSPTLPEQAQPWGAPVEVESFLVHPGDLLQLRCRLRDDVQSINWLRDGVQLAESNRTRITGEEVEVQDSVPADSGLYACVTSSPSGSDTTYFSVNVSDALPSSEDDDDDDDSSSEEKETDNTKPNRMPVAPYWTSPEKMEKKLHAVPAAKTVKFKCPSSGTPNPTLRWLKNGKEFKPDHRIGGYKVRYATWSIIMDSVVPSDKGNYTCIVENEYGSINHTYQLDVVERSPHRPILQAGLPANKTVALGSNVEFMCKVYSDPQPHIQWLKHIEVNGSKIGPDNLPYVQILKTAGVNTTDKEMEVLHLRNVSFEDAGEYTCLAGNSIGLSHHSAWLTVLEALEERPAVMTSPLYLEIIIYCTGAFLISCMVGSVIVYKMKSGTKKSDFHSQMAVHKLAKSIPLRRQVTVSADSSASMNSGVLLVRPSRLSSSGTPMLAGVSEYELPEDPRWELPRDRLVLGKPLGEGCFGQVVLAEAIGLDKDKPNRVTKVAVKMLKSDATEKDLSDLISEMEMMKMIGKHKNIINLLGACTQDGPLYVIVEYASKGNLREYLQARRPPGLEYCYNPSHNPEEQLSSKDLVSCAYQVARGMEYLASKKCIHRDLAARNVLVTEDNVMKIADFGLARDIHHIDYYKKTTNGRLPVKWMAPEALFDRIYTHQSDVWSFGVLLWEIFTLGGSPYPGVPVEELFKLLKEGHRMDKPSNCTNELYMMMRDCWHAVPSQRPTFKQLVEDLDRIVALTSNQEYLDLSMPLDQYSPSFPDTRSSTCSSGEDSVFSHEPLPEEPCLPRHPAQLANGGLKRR
Sequence of human FGFR1c/βKlotho receptor (human) (chain, as listed by the source, chain 2 of 2): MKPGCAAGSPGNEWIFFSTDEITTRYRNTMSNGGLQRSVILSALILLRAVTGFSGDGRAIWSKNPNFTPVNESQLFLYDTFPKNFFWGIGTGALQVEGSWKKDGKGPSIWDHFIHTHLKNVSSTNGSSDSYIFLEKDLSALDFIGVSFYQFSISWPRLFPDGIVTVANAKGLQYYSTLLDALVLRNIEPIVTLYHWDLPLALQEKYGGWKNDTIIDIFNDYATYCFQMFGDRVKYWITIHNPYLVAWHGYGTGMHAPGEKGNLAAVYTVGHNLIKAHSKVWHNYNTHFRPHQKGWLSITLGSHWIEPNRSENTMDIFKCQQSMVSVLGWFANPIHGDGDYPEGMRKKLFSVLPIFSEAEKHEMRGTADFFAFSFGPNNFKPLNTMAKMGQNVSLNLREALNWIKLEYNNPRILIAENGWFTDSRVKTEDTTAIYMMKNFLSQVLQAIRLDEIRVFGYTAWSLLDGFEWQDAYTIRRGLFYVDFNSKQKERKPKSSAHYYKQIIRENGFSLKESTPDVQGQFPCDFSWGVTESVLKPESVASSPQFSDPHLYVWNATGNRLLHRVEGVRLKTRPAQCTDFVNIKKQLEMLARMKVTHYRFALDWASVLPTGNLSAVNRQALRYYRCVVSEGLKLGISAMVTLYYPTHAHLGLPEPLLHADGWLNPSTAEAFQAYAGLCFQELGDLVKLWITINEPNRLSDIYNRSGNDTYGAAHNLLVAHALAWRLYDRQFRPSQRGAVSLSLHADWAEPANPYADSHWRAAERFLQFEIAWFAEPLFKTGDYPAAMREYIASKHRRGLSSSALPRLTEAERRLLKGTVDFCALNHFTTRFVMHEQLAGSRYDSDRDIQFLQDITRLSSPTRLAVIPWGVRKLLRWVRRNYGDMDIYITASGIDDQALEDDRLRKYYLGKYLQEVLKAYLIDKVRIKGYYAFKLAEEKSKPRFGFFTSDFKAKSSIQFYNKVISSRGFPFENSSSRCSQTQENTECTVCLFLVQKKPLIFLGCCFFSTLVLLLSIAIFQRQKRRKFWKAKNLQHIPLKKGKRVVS

Sequence of human FGFR4/βKlotho receptor (human) (P22455 22-802, chain 1 of 2): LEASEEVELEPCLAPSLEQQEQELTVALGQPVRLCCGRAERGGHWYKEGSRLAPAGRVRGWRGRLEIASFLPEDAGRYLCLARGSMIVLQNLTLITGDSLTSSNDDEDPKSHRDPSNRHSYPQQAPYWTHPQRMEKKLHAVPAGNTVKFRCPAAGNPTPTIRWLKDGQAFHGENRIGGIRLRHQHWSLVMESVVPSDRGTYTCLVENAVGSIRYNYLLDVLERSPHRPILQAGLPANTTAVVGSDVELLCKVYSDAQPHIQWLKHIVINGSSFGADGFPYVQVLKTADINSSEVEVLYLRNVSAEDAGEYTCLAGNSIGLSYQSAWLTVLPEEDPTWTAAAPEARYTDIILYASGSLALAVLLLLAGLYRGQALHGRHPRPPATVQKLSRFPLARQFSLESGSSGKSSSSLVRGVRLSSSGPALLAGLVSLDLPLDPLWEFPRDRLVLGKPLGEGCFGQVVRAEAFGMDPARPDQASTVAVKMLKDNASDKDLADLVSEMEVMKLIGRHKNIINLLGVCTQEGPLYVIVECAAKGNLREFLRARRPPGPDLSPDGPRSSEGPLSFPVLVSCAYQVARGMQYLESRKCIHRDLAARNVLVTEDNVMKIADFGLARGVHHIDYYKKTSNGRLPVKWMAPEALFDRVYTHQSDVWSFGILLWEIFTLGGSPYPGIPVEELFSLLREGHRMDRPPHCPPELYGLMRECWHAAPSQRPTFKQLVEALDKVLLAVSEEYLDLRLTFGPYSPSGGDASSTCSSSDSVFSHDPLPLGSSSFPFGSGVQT
Sequence of human FGFR4/βKlotho receptor (human) (chain, as listed by the source, chain 2 of 2): as the sequence (chain, as listed by the source, chain 2 of 2) above
Sequence of human FGFR3c/βKlotho receptor (human) (P22607 23-806, chain 1 of 2): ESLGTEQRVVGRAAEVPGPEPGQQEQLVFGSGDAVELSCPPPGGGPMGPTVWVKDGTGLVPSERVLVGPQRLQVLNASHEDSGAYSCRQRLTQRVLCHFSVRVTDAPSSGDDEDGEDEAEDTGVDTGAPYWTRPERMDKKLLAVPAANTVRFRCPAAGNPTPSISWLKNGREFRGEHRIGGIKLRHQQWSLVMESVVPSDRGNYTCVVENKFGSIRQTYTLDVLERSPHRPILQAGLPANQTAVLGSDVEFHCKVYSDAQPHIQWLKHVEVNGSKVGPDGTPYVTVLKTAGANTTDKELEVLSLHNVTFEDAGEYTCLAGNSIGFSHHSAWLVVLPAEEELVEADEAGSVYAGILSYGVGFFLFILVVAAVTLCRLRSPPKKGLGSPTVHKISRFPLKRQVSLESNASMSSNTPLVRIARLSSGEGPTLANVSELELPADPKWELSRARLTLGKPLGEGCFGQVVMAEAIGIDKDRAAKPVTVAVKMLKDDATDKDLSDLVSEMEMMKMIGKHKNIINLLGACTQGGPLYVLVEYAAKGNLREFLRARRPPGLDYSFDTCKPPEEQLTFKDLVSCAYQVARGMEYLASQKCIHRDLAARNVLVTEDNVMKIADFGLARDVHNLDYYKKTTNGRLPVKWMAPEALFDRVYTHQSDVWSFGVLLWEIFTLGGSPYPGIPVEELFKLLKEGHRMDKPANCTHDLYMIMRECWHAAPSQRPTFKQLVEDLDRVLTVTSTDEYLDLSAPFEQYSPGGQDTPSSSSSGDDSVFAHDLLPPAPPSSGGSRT
Sequence of human FGFR3c/βKlotho receptor (human) (chain, as listed by the source, chain 2 of 2): as the sequence (chain, as listed by the source, chain 2 of 2) above
Sequence of human FGFR2c/βKlotho receptor (human) (P21802 22-821, chain 1 of 2): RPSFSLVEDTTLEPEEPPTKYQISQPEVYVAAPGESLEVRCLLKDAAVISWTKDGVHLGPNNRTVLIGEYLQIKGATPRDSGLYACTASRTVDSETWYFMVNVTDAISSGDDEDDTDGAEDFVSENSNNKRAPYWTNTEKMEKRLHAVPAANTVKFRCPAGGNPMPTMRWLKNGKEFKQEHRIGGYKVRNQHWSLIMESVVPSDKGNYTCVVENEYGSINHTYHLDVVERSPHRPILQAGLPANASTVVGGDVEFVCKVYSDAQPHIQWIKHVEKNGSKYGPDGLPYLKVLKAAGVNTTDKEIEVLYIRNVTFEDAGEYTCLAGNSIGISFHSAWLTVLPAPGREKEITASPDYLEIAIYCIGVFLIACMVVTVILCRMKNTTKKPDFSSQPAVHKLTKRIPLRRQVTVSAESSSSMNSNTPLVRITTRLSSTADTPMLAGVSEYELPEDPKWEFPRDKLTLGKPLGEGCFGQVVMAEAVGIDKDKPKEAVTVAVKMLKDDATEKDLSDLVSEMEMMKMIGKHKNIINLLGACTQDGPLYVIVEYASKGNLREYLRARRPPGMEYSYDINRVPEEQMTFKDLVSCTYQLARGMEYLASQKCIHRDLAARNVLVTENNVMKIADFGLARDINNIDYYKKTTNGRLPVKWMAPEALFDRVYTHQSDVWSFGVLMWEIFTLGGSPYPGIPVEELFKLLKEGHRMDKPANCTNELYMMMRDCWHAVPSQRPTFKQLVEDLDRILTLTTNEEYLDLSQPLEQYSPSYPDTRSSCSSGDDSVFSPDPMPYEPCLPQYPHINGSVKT
Sequence of human FGFR2c/βKlotho receptor (human) (chain, as listed by the source, chain 2 of 2): as the sequence (chain, as listed by the source, chain 2 of 2) above

EC50, luciferase reporter-based assay (receptor activation) [1]: 0.05 nM
EC50, luciferase reporter-based assay (receptor activation) [2]: 2.23 nM
EC50, luciferase reporter-based assay (receptor activation) [3]: 0.27 nM
EC50, luciferase reporter-based assay (receptor activation) [4]: 0.3 nM
EC50, luciferase reporter-based assay (receptor activation) [5]: 0.41 nM
Substance: FGF19 (from UniProt O95750 25-216) (ligand)
